Measured values reported in the nanobody polyreactivity screen of Harvey et al. (2022).

Assay: yeast display, Sf9 membrane polyspecificity reagent, FACS + sequencing; frameworks hold sequencing errors
Summary of the method: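 Galactose induction of a Saccharomyces cerevisiae BJ5465 synthetic nanobody display library ran 36–48 hours. The cells were then stained for 1 hour at 4 °C with 10% biotinylated, detergent-solubilized Sf9 membrane reagent, pulled down on streptavidin microbeads and FACS-sorted into low and high (top ~1%) gates on expression and reagent-binding fluorescence. Labels for polyreactivity follow the gate of origin.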

Sequence	polyreactivity (PSR sort gate)
QVQLVEAGGGLVQAGGSLRLSCAASGLIIAKYAMGWYRQAPGKERELVAGITSGGGTSYADSVKGRFTISRDNAKNTVYLQMNSLKPEDTAVNYCNAVVVGWFYQYDYWGQGTQVTVSS	low polyreactivity
QVQLVESGGGLVQAGGRLRLSCAASGFTFYYNDMGWYRQAPGKERELVAAITWSGGSTYYADSVKGRFTISRDNAKNTVYLQMNSLKPEDTAVYYCNARYWVHGYRYYYWGQGTQVTVSS	high polyreactivity
QVQLVESGGGLVQAGGSLRLSCAASGRTFTRNAMGWYRQAPGKERELVAAITYRAGRTYYADSVKGRFTISRDNAKNTVYLQMNSLKPEDTAVYYCNVVPGASLKEDYWGQGTQVTVSS	low polyreactivity
QVQLVESGGGLVQAGGSLRLSCAASGSIFFDYGMGWYRQAPGKERELVATITRGTGSTYYADSVKGRFTISRDNAKNTVYLQMNSLKPEDTAVYYCAAGWHYVYRTPGFGYWGQGTQVTVSS	high polyreactivity
QVQLVESGGGLVQAGGSLRLSCAASGSTFLYYAMGWYRQAPGKERELVAVISWSGVSTYYADSVKGRFTISRDNAKNTVYLQMNSLTPEDTAVYYCNTGNHYIRTYGYWGQGTQVTVSS	low polyreactivity
QVQLVESGGGLVQAGGSLRLSCAASGITFDHYVMGWYRQAPGKERELVAAISRRGGSTYYADSVKGRFTISRDNAKNTVYLQMNSLKPEDTAVYYCAADSSKHIGYDSWGQGTQVTVSS	high polyreactivity
QVQLVESGGGLVQAGGSLRLICADSGSTFSPNGMGWYTQAHGKERELVAAITSVGSTYYAESVEGRFTISRDNELNTVYFQMNSLQPVDTAVFYCAKGQRDSEEYDYWGQGTQVTVSS	low polyreactivity
QVQLVESGGGLVQAGGSLRLSCAASGRILAANAMRWYRQAPGKERELVAAISWSGGRTYYADSVKGRFTISRDNAKNTVYLQMNSLKPEDTAVYYCASVRRYKMDYWGQGTQVTVSS	high polyreactivity
QVQLVESGGGLFQAGGSLRLSCAASGYTFPLYDMGWYRQAPGKERELVADINIGGASTYYADSVKGRFTISRDNAKNTVNLQMNSLKPEDTAVYYCAKEYNDGYFPTFDYDYWGQGTQVTVSS	low polyreactivity
QVQLVESGGGLVQAGGSLRLSCAASGITLYSYAMGWYRPAPGKERELVAAISWDGGGTYYADSVKGRFTISRDNAKNTVYLQMNSLKPEDTAVYYCAADTQYTDGDSWGQGTQVTVSS	high polyreactivity
QVQLVESGGGLVQAGVSLRLSCAASGRTFFYNAMGWYRQAPGKERELVAAISSGGGYTYYADSVKGRFTISRDNAKNTVYLQMNSLKPEDTAVYYCAAASYRQPGYGYWGQGTQVTVSS	high polyreactivity
QVQLVESGGGLVQAGGSLRLSCAASGFTFYIYAMGWYRQAPGKERELVAAITTTTGSTYYADSVKGRFTISRDNAKNTVYLQMNSLKPEDTAVYYCAAEGHYYYFGYYYWGQGTQVTVSS	low polyreactivity
QVQLVESGGGLVQAGGSLRLSCAASGFTVYYYALGWYRQAPGKERELVAAISDSGGITSYADSVKGRFTISRDNAKNTVYLQMNSLKPEDTAVYYCAYIFGWSSSSKSYYYWGQGTQVTVSS	low polyreactivity
QVQLVESGGGLVQAGGSLRLSCAAYGFFFPFYTMGWYRQAPGKERELVAAIRYSAGRTYYADSVKGRFTISRDNAKNTVYLQMNSLKPEDTAVYYCAADAIYSRAWGFDYWGQGTQVTVSS	high polyreactivity
QVQLVESGGGLVQAGGSLRLSCAASGSTLPYYAMGWYRQAPGKERELVAAITSSGGDTYYADSVKGRFTISRDNAKNTVYLQMNSLKPEDTAVYYCAKSYSARSTVRKLFYFAYDYWGQGTQVTVSS	low polyreactivity
QVQLVESGGGLVQAGGSLRLSCAASGRIFGFYAMGWYRQAPGKERELVARISSRGGSTYYADSVKGRFTISRDNAKNTVYLQMNSLKPEDTAVYYCAAYVWYHQYHYVPMDYWGQGTQVTVSS	high polyreactivity
QVQLVESGGGLVQAGGSLRLSCAASGSIFSYDAMGWYRLAPGKERELVAVINSGGRTNYADSVKGRFTISRDNAKNTVYLQMNRLKPEDTAVYYCAAQGYFVDRAGRYDRGDYWGQGTQVTVSS	high polyreactivity
QVQLVESGGGLVQAGGSLRLSCAASGSTFQVNVMGWYRPAPGKEREFVAGISYSGGSTYYADSVKGRFTISRDNAKNTVYLQMNSLKPDDTAVYYCAAEEDYNIAGSWTYTYDYWGQGTQVTVSS	low polyreactivity
QVQLVESGGGLVQAGGSLRLSCAASGRTFPFYAMGWYRQPPAKERELVAVITWRGSNTYADSVKGRFTISRDNAKNTVYLQMNSLKPEVTAVYYCAADAWRSYGYRAYDYWGQVTQVTVSS	low polyreactivity
QVQLVESGGGLVQAGGSLRLSCAASGRTFKLYAMGWYIQAPGKERELVAAISIRGTSTYYADSVKGRFTISRDNAKNTVYLQMNSLKPEDTAVYYCAAEDRYAYYMVRWQCYYYWGQGTQVTVSS	low polyreactivity
QVQLVESGGGLVQAGGSLRLSCAASGFTFYGYVMGWYRQAPGKERELVASIRSRGSRTSYADSVKGRFTISRDNAKNTVYLQMNSLKPEDTAVYYCAASRGRLPYSSTSNGDYDYWGQGTQVTVSS	high polyreactivity
QVQLVESGGGLVQARGSRRLSCAASGLTFVPTAMGWYRQAPGKEREFVAAISNNGGRKYYADSVKGRFTISRDNAKNRVYLQINSLKPDDTAVYYCAKYLSPGERHSYDYWGQGTQVTVSS	high polyreactivity

Sequence	polyreactivity (PSR sort gate)
QVQLVESGGGLVQAGGSLRISCAASGYTFASYTMGWYRQAPGKERELVATISRGGGRTYYADSVKGRFTISRDNAKNTVYLQLNSLKPEDTAVYYCARPSTFFTGYRQAHFDYWGQGTQVTVSS	high polyreactivity
QVQLVESGGGLVQAGGILRLSCAASGHIFFYYNMGWYRQAPGKERELVAGITIGGSTNYADSVKGRFTISRDNAKNTVNLQMNSLTPEDTAVYYCAKGGEVSQGYTDEYDYWGLGTQVTVSS	low polyreactivity
QVQLQESGGGLVQAGGSLRKSCAASGSVSYQEAMGWYRQAPGKERELVATISFGANTNYADSVKGRFTISRDNAKNTVYLQMNSLKPEDTAVYYCAAESLFDDYYGYWGQGTQVTVSS	low polyreactivity
QVQIVESGGGLVQAGGILRLSCAASGSTFSFNAMGWYRQAPGKERELVAAITGGDGTIYADSVKGRFTISRDNAKNTVYLQMNSLKPEVTAVYYCAADQWGSTEDYWFTYGYWGQGTQVTVSS	low polyreactivity
QVQLVESGGGLVQAGGSLRLSCAASGLIFPYYAMGWYREAPGKARELVASIRYSAGNTYYADSVKGRFTISRDNAKNTVYLQMNSLKPEDTAVYYCWYTQNTLGNYWGQGTQVTVSS	low polyreactivity
QVQLVESGGGLVQAGGSLRLSCAASGRIFARYAMRMYRQAPEKERELVDYINSGDNTYYADSVKWRFTISRDNAKNTVYLQMNSLKPDATAVYYCAAVVGRRQSSSSRFEYDYWGQGTQVTVSS	low polyreactivity
QVQLVESGGGLVQAGGSLRLSCAASGFIFTDNAMGWYRQAPGKERELVAAISKNGGSTYYADSVKGRFTISRDNAKNTVYLQMNSLKPDDTAVYYCNAVRRDSGTYRSPDTTRYDYWGQVTQVTVSS	high polyreactivity
QVQLVESGGGLVQAGGSLRLSCAASGSTFGHYAMGWYRQAPGKERELVAAITRRGGSTYYADSVKGRFTISRDNAKNTVYLQMNSLKPEDTAVYYCATDKHYVYYSSHMGYWGQGTQVTVSS	high polyreactivity
QVQLVESGGGLVQAGGSLRLSCAASGSTFSFYAMGWYRQAPGKERELVAAIRAGTRTYYADSVKGRFTISRDNAKNTVYLQMNSLKPEDTAVYYCAATRRRYPYYYWGQGTQVTVSS	high polyreactivity
QVQLVESGGGLVQAGGSLRLSCAASGIYYNAMGWYRQAPGKERELVAAITTGDRTNYADSVKGRFTISRDNAKNTVYLQMYSLIPEDTAVYYCKAVVERLSSTARDFAYDYWGQGTQVNVSS	low polyreactivity
QVQLVESGGGLFQAGGSLRLSCAASGFTFVYYAMGWYRQAPGKERELVASISGGGRTYYADSVKGRFTISRENAKNTGYLQMNSLIPEDTAVYYCAARYWDYRNRWLYVYWGQGTQLTVSS	high polyreactivity
QVQLVESGGGLVQAGGSLRLSCAASGYIFKYNTMGWYRQAPGKERELVASITWSGVRTYYADSVKGRFTISRDNAKNTVYLQMNSLKPEDTAVYYCNAAYRRSWDSDDYWGQGTQVTVSS	low polyreactivity
QVQLVESGGGIDQAGGSLRLSCAATGLTFWLNPMGWYRQAPWKERELVAAIRYSGGGTYADSVKGRFTISRDNAKNTVSLQMNSLKQEVTAVYYCAALYNLGYPQFDYWGQGNQVTVSS	low polyreactivity
QVQLVESGGGLVQAGGSLRLSCAASGFTFTRYAMGRYRQAPGKERELGATITKRGGSTYYADSVKGRFTISRDNAKNTVYLQLNSLKPEDTAVYFCAARNVRTYVTGVDYDYWGQGTQVTVSS	high polyreactivity
QVQLVESGGGLVQAGGSLPLSCAASGFIFGTNTMGWYRQAPGKEREMVAAITSVGSTNYADSVKGRFTISRDNAKNTVYLQMNSLKPEDTAVYYCPATLYYQYGGDYWGQGTQVTVSS	low polyreactivity
QDQHVESVGGLVQAGGGLPLSCAASGRTFTYNAMGWYRQPPGKERELVAAITSGGTTNYADSVKGRFTISRDNAKNTVYLQMNSLKQEDTAVYYCAARRVYYSYRRYYYWGQGTQVTVSS	low polyreactivity
QVQRVESGGGLVQAGGSLRLSSPASGRMGWYRQAPGKERELVAAITSGDRTNYADSVKGRFTISRDNAKNTVYLQMNSLKPEDTAVYYCATERSWYHGFIDPRGYWGQGTQVTVSS	low polyreactivity
QVQLVESGGGLVQAGGSLRLSCAASGRIFDYNAMGWYRQAPGKERELVASITQRGDITYYADSVKGRFTISRDNAKNTVYLQMNSLKPEDTAVYYCNADGVRVWVLPYVLYTGDYWGQGTQVTVSS	low polyreactivity
QVQLVESGGGLVQAGGSLRLSCAASGFTFWKYAMGWYRQAPGKERELVAAISWSGGNTYYADSVKGRFTISRDNAKNTVYLQMNSLKPEDTAVYYCAAVYTPQNQFRYKYYYWGQGTQVTVSS	high polyreactivity
QVQLVESRGGLVQAGGSLRLSCAASGITLYGYAMGWYRQAPGKERELVAAISRSGSSTYYADSVKGRFTISRDNAKNTVYVQMNSLKPEDTAVYYCNSEKYYLAYLLPFNYWGQGTQVTVSS	high polyreactivity
QVQLVESGGGLVQAGGSLRLSCAASGSIFPYYAMGWYRQAPGKERELVASISRSVGSTFYADSVKGRFTISRDNAKNTVYLQMNSLKPEDTAVYYCAVRYFAQFGDYDYWGQGTQVTVSS	high polyreactivity
